Assay results reported in patent US20260167699A1 (Chugai, published 2026).
Blank lines part the entries; values can stand above or below the binder they belong to.

Columns and labels:
[1] = biological target: T1, FcγRIIa(H) (human, UniProt P12318 34-217); experiment: SPR, relative to GpH7-A5/GpH7-B3/GpL16-k0 =100
T1 construct: extracellular domain; also called 2aH
T1 sequence: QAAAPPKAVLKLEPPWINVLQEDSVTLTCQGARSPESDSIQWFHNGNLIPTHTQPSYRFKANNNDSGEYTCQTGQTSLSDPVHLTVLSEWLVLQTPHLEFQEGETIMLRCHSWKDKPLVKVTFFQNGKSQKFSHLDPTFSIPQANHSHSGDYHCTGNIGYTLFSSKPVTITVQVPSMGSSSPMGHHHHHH

[2] = biological target: T2, FcγRIa (human, UniProt P12314 16-292); experiment: SPR, relative to GpH7-A5/GpH7-B3/GpL16-k0 =100
T2 construct: extracellular domain; also called 1a

[3] = biological target: T3, FcγRIIa(R) (human, UniProt P12318 34-217); experiment: SPR, relative to GpH7-A5/GpH7-B3/GpL16-k0 =100
T3 construct: extracellular domain; also called 2aR
T3 sequence: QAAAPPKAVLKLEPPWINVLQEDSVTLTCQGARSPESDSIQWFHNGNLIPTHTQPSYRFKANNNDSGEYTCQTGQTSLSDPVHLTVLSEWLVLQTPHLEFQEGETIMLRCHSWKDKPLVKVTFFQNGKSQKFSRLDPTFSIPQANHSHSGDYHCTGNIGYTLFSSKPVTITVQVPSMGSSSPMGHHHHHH

[4] = biological target: T4, FcγRIIb (human, UniProt P31994 43-217); experiment: SPR, relative to GpH7-A5/GpH7-B3/GpL16-k0 =100
T4 construct: extracellular domain; also called 2b
T4 sequence: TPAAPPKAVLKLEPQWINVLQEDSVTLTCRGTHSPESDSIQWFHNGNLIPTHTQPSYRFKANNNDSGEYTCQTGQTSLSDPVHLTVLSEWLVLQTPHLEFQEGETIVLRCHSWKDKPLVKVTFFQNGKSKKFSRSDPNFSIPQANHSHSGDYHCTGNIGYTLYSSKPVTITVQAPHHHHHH

[5] = biological target: T5, FcγRIIIa (human, UniProt P08637 17-208); experiment: SPR, relative to GpH7-A5/GpH7-B3/GpL16-k0 =100
T5 construct: extracellular domain; also called 3a
T5 sequence (P08637 other isoform, or with tags, fused parts or gaps): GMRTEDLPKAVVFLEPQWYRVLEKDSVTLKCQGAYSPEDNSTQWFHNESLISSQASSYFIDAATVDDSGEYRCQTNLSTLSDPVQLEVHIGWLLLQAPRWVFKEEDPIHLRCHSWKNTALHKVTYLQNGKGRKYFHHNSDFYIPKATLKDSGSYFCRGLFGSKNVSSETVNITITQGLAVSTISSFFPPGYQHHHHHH

[6] = biological target: T6, FcγRIIIa (human, UniProt P08637 17-208); experiment: SPR (Biacore T100), antibody captured on protein L chip, FcγRIIIa as analyte, TBS(+), 25 C, 1:1 Langmuir fit
T6 construct: extracellular domain; also called 3a
Method: Specifically, their interaction with FcγRIIIa was analyzed using BiaCore™ T100 surface plasmon resonance system (GE Healthcare Japan Corp.). The running buffer used was the TBS(+) solution used in the preceding paragraph. The assay temperature was set to 25° C. Protein L was immobilized onto Series S Sensor Chip CM4 (GE Healthcare Japan Corp.) by the amine coupling method to prepare a chip. Each antibody of interest was captured onto the protein L-immobilized chip and allowed to interact with FcγRIIIa diluted with a running buffer. The antibody captured on the chip was washed off through the reaction of 10 mM glycine-HCl (pH 1.5) to regenerate the chip, which was repetitively used.
Each antibody was evaluated for its binding activity against FcγRIIIa with binding activity against FcγRIIIa and dissociation constant for FcγRIIIa as main indexes. […] Specifically, a sensorgram obtained by assay using BiaCore™ surface plasmon resonance Evaluation Software was globally fit into the 1:1 Langmuir model to calculate an association rate constant ka (L/mol/s) and a dissociation rate constant kd (1/s). From these values, the dissociation constant KD (mol/L) was calculated.

[7] = biological target: T7, FcγRIIIaV (human, UniProt P08637 17-208); experiment: SPR (Biacore), antibody captured, FcγR as analyte, 1:1 Langmuir fit
T7 construct: extracellular domain
T7 sequence (P08637 other isoform, or with tags, fused parts or gaps): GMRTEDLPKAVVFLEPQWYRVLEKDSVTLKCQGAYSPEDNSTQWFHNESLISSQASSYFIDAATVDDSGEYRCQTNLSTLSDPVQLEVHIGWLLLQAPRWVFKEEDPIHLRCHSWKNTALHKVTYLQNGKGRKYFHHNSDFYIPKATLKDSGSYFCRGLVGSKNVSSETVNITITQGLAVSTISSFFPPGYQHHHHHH
Method: The antibody of interest was analyzed for its interaction with FcγR using a BiaCore™ T100, BiaCore™ A100, or BiaCore™ 4000 surface plasmon resonance system (GE Healthcare Japan Corp.). The running buffer used was HBS-EP+ (GE Healthcare Japan Corp.). The assay temperature was set to 25° C. The sensor chips used were: a chip prepared by immobilizing antigenic peptides onto Series S Sensor Chip CM5 (GE Healthcare Japan Corp.) by the amine coupling method; a chip prepared by immobilizing antigenic peptides biotinylated in advance onto Series S Sensor Chip SA (certified) (GE Healthcare Japan Corp.) through their interaction; a chip prepared by immobilizing protein L (ACTIGEN, BioVision, Inc.) onto Series S Sensor Chip CM5 (GE Healthcare Japan Corp.); and a chip prepared by immobilizing protein A/G (Thermo Fisher Scientific K.K.) onto Series S Sensor Chip CM5 (GE Healthcare Japan Corp.). The antibody of interest was captured onto any of these chips and allowed to interact with FcγR diluted with a running buffer. The antibody captured on the chip was washed off through the reaction of 10 mM glycine-HCl (pH 1.5) to regenerate the chip, which was repetitively used.

T2 sequence (P12314 other isoform, or with tags, fused parts or gaps): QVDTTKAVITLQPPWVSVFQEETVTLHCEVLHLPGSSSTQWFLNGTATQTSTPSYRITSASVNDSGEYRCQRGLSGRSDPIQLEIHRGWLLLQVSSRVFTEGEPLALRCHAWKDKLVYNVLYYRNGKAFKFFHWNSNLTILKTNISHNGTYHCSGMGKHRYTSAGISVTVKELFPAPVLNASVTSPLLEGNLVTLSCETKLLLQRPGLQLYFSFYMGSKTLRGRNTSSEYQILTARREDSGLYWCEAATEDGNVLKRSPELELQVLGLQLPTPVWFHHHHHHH

He/Con 2aH [1]: 115%
He/Con 1a [2]: 101%
He/Con 2aR [3]: 126%
He/Con 2b [4]: 144%
He/Con 3a [5]: 74.4%
B1: GpH7-A5/GpH7-B3 variant A327_01G/GpL16-k0 (antibody, human IgG1, kappa)
heavy 1: not shown
heavy 2: not shown
light: DIVMTQSPLSLPVTPGEPASISCQASESLVHSNRNTYLHWYLQKPGQSPQLLIYKVSNRFSGVPDRFSGSGSGTDFTLKISRVEAEDVGVYYCSQNTHVPPTFGQGTKVEIERTVAAPSVFIFPPSDEQLKSGTASVVCLLNNFYPREAKVQWKVDNALQSGNSQESVTEQDSKDSTYSLSSTLTLSKADYEKHKVYACEVTHQGLSSPVTKSFNRGEC
notes: He Ab: heterodimerized IgG1, one H chain mutated

He/Con 2aH [1]: 65.7%
He/Con 1a [2]: 104%
He/Con 2aR [3]: 136%
He/Con 2b [4]: 215%
He/Con 3a [5]: 54.9%
B2: GpH7-A5/GpH7-B3 variant L328_10E/GpL16-k0 (antibody, human IgG1, kappa)
heavy 1: not shown
heavy 2: not shown
light: DIVMTQSPLSLPVTPGEPASISCQASESLVHSNRNTYLHWYLQKPGQSPQLLIYKVSNRFSGVPDRFSGSGSGTDFTLKISRVEAEDVGVYYCSQNTHVPPTFGQGTKVEIERTVAAPSVFIFPPSDEQLKSGTASVVCLLNNFYPREAKVQWKVDNALQSGNSQESVTEQDSKDSTYSLSSTLTLSKADYEKHKVYACEVTHQGLSSPVTKSFNRGEC
notes: as for B1

Kd [6]: 2.1 nM
B4: H240-Kn125/H240-Hl076-ma1/L73 (antibody, human IgG1, kappa)
heavy 1: QDQLVQSGAEVKKPGASVKVSCKASGFNIKDTYIQWVRQAPGQGLEWMGRIDPLRKQTKYREKFEGRVTITADTSTNTAYMELSSLRSEDTAVYYCVRSGREFDYWGQGTLVTVSSASTKGPSVFPLAPSSKSTSGGTAALGCLVKDYFPEPVTVSWNSGALTSGVHTFPAVLQSSGLYSLSSVVTVPSSSLGTQTYICNVNHKPSNTKVDKKVEPKSCDKTHTCPPCPAPELLGGPSVFLFPPKPKDTLMISRTPEVTCVVVDVSGCRGDCLEPEVKFNWYVDGVEVHNAKTKPREEQYNSTYRVVSVLTVLHQDWLNGKEYKCKVSNDALPMPIEETISKAKGQPREPQVYTLPPSRCELTKNQVSLSCAVKGFYPSDIAVEWESNGQPENNYKTTPPVLDSDGSFFLVSKLTVDKSRWQQGNVFSCSVMHEALHNHYTQKSLSLSP
heavy 2: QDQLVQSGAEVKKPGASVKVSCKASGFNIKDTYIQWVRQAPGQGLEWMGRIDPLRKQTKYREKFEGRVTITADTSTNTAYMELSSLRSEDTAVYYCVRSGREFDYWGQGTLVTVSSASTKGPSVFPLAPSSKSTSGGTAALGCLVKDYFPEPVTVSWNSGALTSGVHTFPAVLQSSGLYSLSSVVTVPSSSLGTQTYICNVNHKPSNTKVDKKVEPKSCDKTHTCPPCPAPEYQWGPMVFLFPPKPKDTLMISRTPEVTCVVVDVSDEEPEVKFNWYVDGVEVHNAKTKPREEQYNATYRVVSVLTVLHQDWLNGKEYKCKVSNKALPAPIEKTISKAKGQPREPQVCTLPPSRDELTKNQVSLWCLVKGFYPSDIAVEWESNGQPENNYKTTPPVLDSDGSFFLYSKLTVDKSRWQQGNVFSCSVMHEALHNHYTQKSLSLSP
light: DIQMTQSPSSLSASVGDRVTITCRASQDIHKYIAWYQQKPGQAPRLLIQYTSTLQPGVPSRFSGSGSGTDYTFTISSLQPEDIATYYCLQYEQLRTFGGGTKVEIKRTVAAPSVFIFPPSDEQLKSGTASVVCLLNNFYPREAKVQWKVDNALQSGNSQESVTEQDSKDSTYSLSSTLTLSKADYEKHKVYACEVTHQGLSSPVTKSFNRGEC
notes: heterodimerized anti-EREG antibody with the RGD peptide inserted in a loop region of the H240-Hl076 chain; also called H240-Kn125/H240-HI076-ma1/L73

Kd [6]: 160 nM
B5: H240-Kn125-ma1/H240-Hl076/L73 (antibody, human IgG1, kappa)
heavy 1: QDQLVQSGAEVKKPGASVKVSCKASGFNIKDTYIQWVRQAPGQGLEWMGRIDPLRKQTKYREKFEGRVTITADTSTNTAYMELSSLRSEDTAVYYCVRSGREFDYWGQGTLVTVSSASTKGPSVFPLAPSSKSTSGGTAALGCLVKDYFPEPVTVSWNSGALTSGVHTFPAVLQSSGLYSLSSVVTVPSSSLGTQTYICNVNHKPSNTKVDKKVEPKSCDKTHTCPPCPAPELLGGPSVFLFPPKPKDTLMISRTPEVTCVVVDVSHEEPEVKFNWYVDGVEVHNAKTKPREEQYNSTYRVVSVLTVLHQDWLNGKEYKCKVSNDALPMPIEETISKAKGQPREPQVYTLPPSRCELTKNQVSLSCAVKGFYPSDIAVEWESNGQPENNYKTTPPVLDSDGSFFLVSKLTVDKSRWQQGNVFSCSVMHEALHNHYTQKSLSLSP
heavy 2: QDQLVQSGAEVKKPGASVKVSCKASGFNIKDTYIQWVRQAPGQGLEWMGRIDPLRKQTKYREKFEGRVTITADTSTNTAYMELSSLRSEDTAVYYCVRSGREFDYWGQGTLVTVSSASTKGPSVFPLAPSSKSTSGGTAALGCLVKDYFPEPVTVSWNSGALTSGVHTFPAVLQSSGLYSLSSVVTVPSSSLGTQTYICNVNHKPSNTKVDKKVEPKSCDKTHTCPPCPAPEYQWGPMVFLFPPKPKDTLMISRTPEVTCVVVDVSGCRGDCLEPEVKFNWYVDGVEVHNAKTKPREEQYNATYRVVSVLTVLHQDWLNGKEYKCKVSNKALPAPIEKTISKAKGQPREPQVCTLPPSRDELTKNQVSLWCLVKGFYPSDIAVEWESNGQPENNYKTTPPVLDSDGSFFLYSKLTVDKSRWQQGNVFSCSVMHEALHNHYTQKSLSLSP
light: DIQMTQSPSSLSASVGDRVTITCRASQDIHKYIAWYQQKPGQAPRLLIQYTSTLQPGVPSRFSGSGSGTDYTFTISSLQPEDIATYYCLQYEQLRTFGGGTKVEIKRTVAAPSVFIFPPSDEQLKSGTASVVCLLNNFYPREAKVQWKVDNALQSGNSQESVTEQDSKDSTYSLSSTLTLSKADYEKHKVYACEVTHQGLSSPVTKSFNRGEC
notes: heterodimerized anti-EREG antibody with the RGD peptide inserted in a loop region of the H240-Kn125 chain; also called H240-Kn125-ma1/H240-HI076/L73

The remaining lines, values behind:

B3: H240-G1dE/H240-G1dE/L73 (antibody, human IgG1, kappa)
heavy: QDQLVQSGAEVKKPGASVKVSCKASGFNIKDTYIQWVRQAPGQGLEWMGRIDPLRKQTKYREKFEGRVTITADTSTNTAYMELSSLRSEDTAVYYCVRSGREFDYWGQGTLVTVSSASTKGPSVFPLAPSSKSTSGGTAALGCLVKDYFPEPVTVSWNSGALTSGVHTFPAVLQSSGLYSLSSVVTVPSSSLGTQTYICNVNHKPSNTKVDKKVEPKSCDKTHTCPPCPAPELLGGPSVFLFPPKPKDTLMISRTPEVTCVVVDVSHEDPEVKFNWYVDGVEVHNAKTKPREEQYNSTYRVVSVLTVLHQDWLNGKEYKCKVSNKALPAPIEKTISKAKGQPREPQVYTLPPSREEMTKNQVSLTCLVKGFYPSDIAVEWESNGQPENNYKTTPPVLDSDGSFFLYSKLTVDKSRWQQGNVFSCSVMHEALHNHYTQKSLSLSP
light: DIQMTQSPSSLSASVGDRVTITCRASQDIHKYIAWYQQKPGQAPRLLIQYTSTLQPGVPSRFSGSGSGTDYTFTISSLQPEDIATYYCLQYEQLRTFGGGTKVEIKRTVAAPSVFIFPPSDEQLKSGTASVVCLLNNFYPREAKVQWKVDNALQSGNSQESVTEQDSKDSTYSLSSTLTLSKADYEKHKVYACEVTHQGLSSPVTKSFNRGEC
notes: anti-EREG antibody with constant regions derived from human natural IgG1; also called IgG1; naturally occurring IgG1
Kd [6]: 290 nM
Kd [7]: 340 nM

B6: H240-G1d-CD/H240-G1d-CD/L73 (antibody, human IgG1, kappa)
heavy: QDQLVQSGAEVKKPGASVKVSCKASGFNIKDTYIQWVRQAPGQGLEWMGRIDPLRKQTKYREKFEGRVTITADTSTNTAYMELSSLRSEDTAVYYCVRSGREFDYWGQGTLVTVSSASTKGPSVFPLAPSSKSTSGGTAALGCLVKDYFPEPVTVSWNSGALTSGVHTFPAVLQSSGLYSLSSVVTVPSSSLGTQTYICNVNHKPSNTKVDKKVEPKSCDKTHTCPPCPAPELLGGPSVFLFPPKPKDTLMISRTPEVTCVVVDVSHEDPEVKFNWYVDGVEVHNAKTKPREEQYNSTYRVVSVLTVLHQDWLNGKEYKCKVSNKALPAPIEKTISKAKGQPREPQVYTLPPSRDELTKNQVSLTCLVKGFYPSDIAVEWESGCRGDCLPENNYKTTPPVLDSDGSFFLYSKLTVDKSRWQQGNVFSCSVMHEALHNHYTQKSLSLSP
light: DIQMTQSPSSLSASVGDRVTITCRASQDIHKYIAWYQQKPGQAPRLLIQYTSTLQPGVPSRFSGSGSGTDYTFTISSLQPEDIATYYCLQYEQLRTFGGGTKVEIKRTVAAPSVFIFPPSDEQLKSGTASVVCLLNNFYPREAKVQWKVDNALQSGNSQESVTEQDSKDSTYSLSSTLTLSKADYEKHKVYACEVTHQGLSSPVTKSFNRGEC
notes: anti-EREG antibody with the RGD peptide inserted in the CH3 regions (control)
Kd [6]: 310 nM

B7: H240-Kn125-CD/H240-Hl076/L73 (antibody, human IgG1, kappa)
heavy 1: QDQLVQSGAEVKKPGASVKVSCKASGFNIKDTYIQWVRQAPGQGLEWMGRIDPLRKQTKYREKFEGRVTITADTSTNTAYMELSSLRSEDTAVYYCVRSGREFDYWGQGTLVTVSSASTKGPSVFPLAPSSKSTSGGTAALGCLVKDYFPEPVTVSWNSGALTSGVHTFPAVLQSSGLYSLSSVVTVPSSSLGTQTYICNVNHKPSNTKVDKKVEPKSCDKTHTCPPCPAPELLGGPSVFLFPPKPKDTLMISRTPEVTCVVVDVSHEEPEVKFNWYVDGVEVHNAKTKPREEQYNSTYRVVSVLTVLHQDWLNGKEYKCKVSNDALPMPIEETISKAKGQPREPQVYTLPPSRCELTKNQVSLSCAVKGFYPSDIAVEWESNGQPENNYKTTPPVLDSDGSFFLVSKLTVDKSRWQQGNVFSCSVMHEALHNHYTQKSLSLSP
heavy 2: QDQLVQSGAEVKKPGASVKVSCKASGFNIKDTYIQWVRQAPGQGLEWMGRIDPLRKQTKYREKFEGRVTITADTSTNTAYMELSSLRSEDTAVYYCVRSGREFDYWGQGTLVTVSSASTKGPSVFPLAPSSKSTSGGTAALGCLVKDYFPEPVTVSWNSGALTSGVHTFPAVLQSSGLYSLSSVVTVPSSSLGTQTYICNVNHKPSNTKVDKKVEPKSCDKTHTCPPCPAPEYQWGPMVFLFPPKPKDTLMISRTPEVTCVVVDVSDEEPEVKFNWYVDGVEVHNAKTKPREEQYNATYRVVSVLTVLHQDWLNGKEYKCKVSNKALPAPIEKTISKAKGQPREPQVCTLPPSRDELTKNQVSLWCLVKGFYPSDIAVEWESGCRGDCLPENNYKTTPPVLDSDGSFFLYSKLTVDKSRWQQGNVFSCSVMHEALHNHYTQKSLSLSP
light: DIQMTQSPSSLSASVGDRVTITCRASQDIHKYIAWYQQKPGQAPRLLIQYTSTLQPGVPSRFSGSGSGTDYTFTISSLQPEDIATYYCLQYEQLRTFGGGTKVEIKRTVAAPSVFIFPPSDEQLKSGTASVVCLLNNFYPREAKVQWKVDNALQSGNSQESVTEQDSKDSTYSLSSTLTLSKADYEKHKVYACEVTHQGLSSPVTKSFNRGEC
notes: heterodimerized anti-EREG antibody with the RGD peptide inserted in a CH3 region (control); also called H240-Kn125-CD/H240-HI076/L73
Kd [6]: 0.85 nM
